Columns and labels:
[1] = Hydrophobicity (hydrophobic index) relative to human insulin by isocratic RP-HPLC; format: physicochemical; details: LiChrosorb RP18 column, isocratic elution at 40° C., sodium phosphate buffer pH 7.3/acetonitrile
Procedure: The elution was monitored by following the UV absorption of the eluate at 214 nm. Void time, t0, was found by injecting 0.1 mM sodium nitrate.

human insulin receptor = human insulin receptor (Homo sapiens, UniProt P06213); test: Insulin receptor binding, SPA microtiterplate antibody capture assay; details: purified recombinant human insulin receptor - exon 11; A14 Tyr[125I]-human insulin tracer; 16 hours incubation
Procedure: SPA-PVT antibody-binding beads, anti-mouse reagent (Amersham Biosciences, Cat No. PRNQ0017) were mixed with 25 ml of binding buffer (100 mM HEPES pH 7.8; 100 mM sodium chloride, 10 mM MgSO4, 0.025% Tween-20). […] A total of 100 μl was then added and a dilution series is made from appropriate samples. To the dilution series was then added 100 μl of reagent mix and the samples were incubated for 16 hours while gently shaken. The phases were the then separated by centrifugation for 1 min and the plates counted in a Topcounter. The binding data were fitted using the nonlinear regression algorithm in the GraphPad Prism 2.01 (GraphPad Software, San Diego, Calif.).

Chain of human insulin receptor (P06213 28-746 isoform P06213-2 limits assumed): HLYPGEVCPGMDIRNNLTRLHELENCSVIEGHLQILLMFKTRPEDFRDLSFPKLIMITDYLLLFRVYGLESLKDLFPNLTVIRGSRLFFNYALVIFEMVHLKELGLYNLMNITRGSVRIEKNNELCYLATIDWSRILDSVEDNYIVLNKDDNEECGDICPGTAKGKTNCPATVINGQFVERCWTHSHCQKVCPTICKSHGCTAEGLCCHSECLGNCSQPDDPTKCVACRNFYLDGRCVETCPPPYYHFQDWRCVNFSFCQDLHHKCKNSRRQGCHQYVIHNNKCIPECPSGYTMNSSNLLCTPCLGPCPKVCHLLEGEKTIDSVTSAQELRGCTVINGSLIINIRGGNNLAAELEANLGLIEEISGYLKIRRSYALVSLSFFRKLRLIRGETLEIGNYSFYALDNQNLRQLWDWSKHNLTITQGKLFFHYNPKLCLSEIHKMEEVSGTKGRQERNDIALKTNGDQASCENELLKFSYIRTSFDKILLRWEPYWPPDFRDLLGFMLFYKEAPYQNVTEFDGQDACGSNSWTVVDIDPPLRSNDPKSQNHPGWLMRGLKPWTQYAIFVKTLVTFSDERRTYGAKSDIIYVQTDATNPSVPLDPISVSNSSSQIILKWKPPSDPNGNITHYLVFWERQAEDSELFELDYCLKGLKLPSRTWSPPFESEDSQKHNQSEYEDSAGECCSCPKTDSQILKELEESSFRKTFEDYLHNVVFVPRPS
Chain of human insulin receptor (P06213 763-1382 partner limits assumed): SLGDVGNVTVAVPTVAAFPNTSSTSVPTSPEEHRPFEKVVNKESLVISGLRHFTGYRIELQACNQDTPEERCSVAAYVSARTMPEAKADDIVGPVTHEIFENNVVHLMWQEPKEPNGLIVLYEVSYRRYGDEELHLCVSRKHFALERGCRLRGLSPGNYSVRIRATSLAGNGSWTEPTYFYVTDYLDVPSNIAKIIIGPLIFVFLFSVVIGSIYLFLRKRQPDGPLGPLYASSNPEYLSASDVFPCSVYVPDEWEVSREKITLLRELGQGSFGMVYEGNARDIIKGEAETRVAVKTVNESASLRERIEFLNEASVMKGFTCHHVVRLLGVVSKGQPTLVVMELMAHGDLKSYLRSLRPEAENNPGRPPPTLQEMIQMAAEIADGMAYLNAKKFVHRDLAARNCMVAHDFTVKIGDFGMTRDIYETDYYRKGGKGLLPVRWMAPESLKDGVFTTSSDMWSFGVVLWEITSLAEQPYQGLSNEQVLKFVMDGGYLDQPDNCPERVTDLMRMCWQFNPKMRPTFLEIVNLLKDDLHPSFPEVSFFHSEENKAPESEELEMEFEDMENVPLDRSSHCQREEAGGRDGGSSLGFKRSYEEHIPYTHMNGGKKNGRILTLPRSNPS

Substance	k′rel [1]	Receptor binding (% of human insulin) (human insulin receptor)
N^εB29-4-{[(2-Carboxyethyl)-(15-carboxypentadecanoyl)amino]methyl}benzoyl)-γ-L-glutamyl desB30 human insulin [Example 20]	0.399	–
N^εB29-10-(4-Carboxyphenoxy)decanoyl beta-Asp desB30 insulin [Example 25]	0.348	42 % of human insulin
N^εB29-10-(4-carboxyphenylsulfanyl)decanoyl-γ-L-glutamyl desB30 human insulin [Example 23]	0.475	101 % of human insulin
N^εB29-11-(4-Carboxy-phenoxy) undecanoyl γ-L-glutamyl desB30 insulin [Example 26]	0.482	55 % of human insulin
N^εB29-(3-Carboxy-4-(14-carboxytetradecyloxy)benzoyl) desB30 human insulin [Example 12]	1.51	–
N^εB29-(3-Carboxy-5-(14-carboxytetradecyloxy)benzoyl) desB30 human insulin [Example 13]	1.175	–
N^εB29-(3-Carboxy-5-hexadecandioylaminobenzoyl) des(B30)insulin [Example 9]	1.7	12 % of human insulin
N^εB29-(3-Carboxy-5-octadecandioylaminobenzoyl) des(B30) human insulin [Example 10]	2.97	19 % of human insulin
N^εB29-(3-carboxy-4-hexdecandioylaminobenzoyl) desB30 human insulin [Example 22]	1.075	–
N^εB29-[3-Carboxy-5-(octadecandioyl-N-carboxyethylglycin)aminobenzoyl] desB30 human insulin [Example 15]	0.662	–
N^εB29-[(5-{[(2-Carboxyethyl)-(15-carboxypentadecanoyl)amino]methyl}furan-2-carbonyl)desB30 human insulin [Example 5]	1.19	13 % of human insulin
N^εB29-{4-Carboxy-4-[10-(4-carboxy-phenoxy)-decanoylamino]-butyryl}desB30 human insulin [Example 14]	0.388	46 % of human insulin
N^εB29-{4-[2-(4-carboxymethylphenyl)ethyl]phenyl}acetyl-γ-L-glutamyl desB30 human insulin [Example 21]	0.291	–
N^εB29-ω-carboxypentadecanoyl-(4-aminomethylbenzoyl)-γ-L-glutamyl desB30 human insulin [Example 18]	1.18	–
N^εB29-ω-carboxypentadecanoyl-γ-L-glutamyl 4-aminomethyl-benzoyl) desB30 human insulin [Example 11]	1.12	14 % of human insulin
N^εB29{3-[(3,5-Bis-carboxymethoxy-benzyl)-(15-carboxypentadecanoyl)amino]-propionyl desB30 human insulin [Example 16]	0.45	–
N^εB29—N—(HOOC(CH2)15CO)—N-(carboxyethyl)-CH2-para-C6H4CO] desB30 human insulin [Example 4]	1.23	–
N^εB29—N—(HOOC(CH2)16CO)—N(carboxyethyl)-CH2-para-C6H4CO] desB30 human insulin [Example 3]	2.03	15 % of human insulin
N^εB29—[N—(HOOC(CH2)13CO)—N-(carboxyethyl)-CH2-para-C6H4CO] desB30 human insulin [Example 2]	0.81	28 % of human insulin
N^εB29—[N—(HOOC(CH2)14CO)—N-(carboxyethyl)-para-C6H4CO] desB30 human insulin [Example 8]	1.08	17 % of human insulin
N^εB29—[N—HOOC(CH2)14CO)—N-(carboxethyl)-CH2-ortho C6H4CO] desB30 human insulin [Example 7]	0.905	11 % of human insulin
N^εB29—[N—HOOC(CH2)14CO)—N-(carboxyethyl)-CH2-para-C6H4CO] desB30 human insulin [Example 1]	–	18 % of human insulin

Source: patent USRE46170E1, “Insulin derivatives” (Novo Nordisk A/S, priority 2005, dated 2016)
